Laboratory results taken from paper PMC10611751, “Dynamic interactions between E-cadherin and Ankyrin-G mediate epithelial cell polarity maintenance” (Nature Communications, 2023).
Values joined by “and” are separate entries in the source; they are usually repeats but may differ in a detail not shown here. Equal entries are not always repeated. Each block holds one binder with its values, some of them ahead of it.

B1: E-cadherin C-terminal domain (residues 734-884) (domain or fragment)
chain: not shown
notes: The ITC methods name 'Trx-E-cadherin'; 15N-labelled for the HSQC titration; also called E-cadherin CTD; CTD; source: E. coli BL21 (DE3), purified (Ni-NTA, SEC); not shown: Trx, N-terminal, kept; His6, N-terminal, kept
B2: Ankyrin-G 24 ANK repeats (residues 38-855) (domain or fragment, UniProt O70511 38-855, looked up)
chain: KSDANASYLRAARAGHLEKALDYIKNGVDVNICNQNGLNALHLASKEGHVEVVSELLQREANVDAATKKGNTALHIASLAGQAEVVKVLVTNGANVNAQSQNGFTPLYMAAQENHLEVVRFLLDNGASQSLATEDGFTPLAVALQQGHDQVVSLLLENDTKGKVRLPALHIAARKDDTKAAALLLQNDTNADIESKMVVNRATESGFTPLHIAAHYGNINVATLLLNRAAAVDFTARNDITPLHVASKRGNANMVKLLLDRGAKIDAKTRDGLTPLHCGARSGHEQVVEMLLDRAAPILSKTKNGLSPLHMATQGDHLNCVQLLLQHNVPVDDVTNDYLTALHVAAHCGHYKVAKVLLDKKANPNAKALNGFTPLHIACKKNRIRVMELLLKHGASIQAVTESGLTPIHVAAFMGHVNIVSQLMHHGASPNTTNVRGETALHMAARSGQAEVVRYLVQDGAQVEAKAKDDQTPLHISARLGKADIVQQLLQQGASPNAATTSGYTPLHLSAREGHEDVAAFLLDHGASLSITTKKGFTPLHVAAKYGKLEVASLLLQKSASPDAAGKSGLTPLHVAAHYDNQKVALLLLDQGASPHAAAKNGYTPLHIAAKKNQMDIATSLLEYGADANAVTRQGIASVHLAAQEGHVDMVSLLLSRNANVNLSNKSGLTPLHLAAQEDRVNVAEVLVNQGAHVDAQTKMGYTPLHVGCHYGNIKIVNFLLQHSAKVNAKTKNGYTPLHQAAQQGHTHIINVLLQNNASPNELTVNGNTALAIARRLGYISVVDTLKVVTEEIMTTTTITEKHKMNVPETMNEVLDMS
notes: Ankyrin-G, 24 ANK repeats, residues 38-855; The ITC methods name 'Trx-AnkG R1-24'; also called AnkG R1-24; AnkG ANK repeats; source: E. coli BL21 (DE3), purified (Ni-NTA, SEC); not shown: Trx, N-terminal, kept; His6, N-terminal, kept

Legend:
Details in all cases: both partners purified
[1] = biological target: T1, full-length β-catenin 1-781 (mouse, UniProt Q02248 1-781); assay: SEC-MALS; analytical gel filtration with static light scattering; AnkG R1-24, E-cadherin CTD and β-catenin 1-781 mixed at 1:1:1, 2:1:1, 3:1:1 and 4:1:1 molar ratios; also E-cadherin CTD with β-catenin 1-781 alone
T1 construct: also called β-catenin FL; source: E. coli BL21 (DE3), purified (Ni-NTA, SEC)
T1 sequence (looked up): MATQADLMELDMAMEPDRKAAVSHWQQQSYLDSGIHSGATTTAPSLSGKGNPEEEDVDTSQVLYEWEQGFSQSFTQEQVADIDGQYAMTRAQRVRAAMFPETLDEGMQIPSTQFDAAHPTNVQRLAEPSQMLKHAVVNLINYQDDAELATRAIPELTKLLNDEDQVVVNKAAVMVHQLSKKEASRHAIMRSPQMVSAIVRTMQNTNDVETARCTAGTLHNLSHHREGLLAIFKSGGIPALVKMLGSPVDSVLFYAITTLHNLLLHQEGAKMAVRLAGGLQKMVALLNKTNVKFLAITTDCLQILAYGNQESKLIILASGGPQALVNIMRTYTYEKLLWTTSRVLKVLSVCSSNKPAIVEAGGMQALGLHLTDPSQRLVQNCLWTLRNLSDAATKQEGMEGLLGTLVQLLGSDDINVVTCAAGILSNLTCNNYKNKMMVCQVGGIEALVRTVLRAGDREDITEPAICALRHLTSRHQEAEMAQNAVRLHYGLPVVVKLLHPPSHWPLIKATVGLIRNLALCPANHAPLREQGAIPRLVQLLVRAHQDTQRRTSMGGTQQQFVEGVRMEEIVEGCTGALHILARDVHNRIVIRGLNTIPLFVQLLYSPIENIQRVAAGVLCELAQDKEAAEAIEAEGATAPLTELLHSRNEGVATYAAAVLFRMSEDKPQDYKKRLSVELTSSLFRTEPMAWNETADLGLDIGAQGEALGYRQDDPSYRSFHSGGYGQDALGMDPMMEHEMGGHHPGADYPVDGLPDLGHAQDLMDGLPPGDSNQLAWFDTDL

[2] = biological target: B2; assay: ITC; E-cadherin proteins in the syringe (e.g. 200 μM Trx-E-cadherin) titrated into AnkG in the cell (e.g. 20 μM Trx-AnkG R1-24); 25 °C; 50 mM Tris, 100 mM NaCl, 1 mM EDTA, 1 mM DTT, pH 7.8; one-site binding model
[3] = biological target: T2, E-cadherin CTD–β-catenin complex (mouse, UniProt P09803 734-884; Q02248 1-781); assay: SEC-MALS; analytical gel filtration with static light scattering; AnkG R1-24, E-cadherin CTD and β-catenin 1-781 mixed at 1:1:1, 2:1:1, 3:1:1 and 4:1:1 molar ratios; also E-cadherin CTD with β-catenin 1-781 alone
T2 construct: Formed beforehand for the ITC titration to AnkG R1-24; in the light scattering experiment the three proteins were mixed together; source: E. coli BL21 (DE3), purified (Ni-NTA, SEC)
T2 sequence (P09803 734-884, one chain of several): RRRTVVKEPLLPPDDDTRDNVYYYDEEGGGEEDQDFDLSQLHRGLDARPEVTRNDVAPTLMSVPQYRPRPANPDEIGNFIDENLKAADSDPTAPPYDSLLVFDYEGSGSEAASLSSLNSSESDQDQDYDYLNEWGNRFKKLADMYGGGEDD

[4] = biological target: B1; assay: SEC-MALS; FPLC coupled with static light scattering; 70 μM E-cadherin with 70, 140, 210 or 280 μM AnkG (molar ratios 1:1 to 1:4); Superdex 200 increase; 50 mM Tris, 100 mM NaCl, 1 mM EDTA, 1 mM DTT, pH 7.8
[5] = biological target: B2; assay: as above

Binder: B1
- binding result [1]: binds
- Kd [2]: ~1.3 µM
- stoichiometry N [2]: ~0.22

Binder: B2
- stoichiometry N [3]: 1 to 2 AnkG R1-24 per E-cadherin CTD and β-catenin
- stoichiometry N [4]: 1 AnkG R1-24 per E-cadherin CTD and 2 AnkG R1-24 per E-cadherin CTD

B3: E-cadherin 828-884 (including both site-2 and site-3) (domain or fragment)
chain: not shown
notes: source: E. coli BL21 (DE3), purified (Ni-NTA, SEC); not shown: Trx, N-terminal, kept; His6, N-terminal, kept
- stoichiometry N [5]: 1
- Kd [2]: ~1.9 µM

The remaining lines, values ahead:

- Kd [2]: ~0.9 µM
B4: E-cadherin residues 755-770 (site-1) (domain or fragment, mouse, UniProt P09803 755-770, looked up)
chain: YYYDEEGGGEEDQDFD
notes: E-cadherin, mouse, residues 755-770; also called E-cadherin site-1; source: E. coli BL21 (DE3), purified (Ni-NTA, SEC); not shown: Trx, N-terminal, kept; His6, N-terminal, kept

- Kd [2]: ~1.9 µM
B5: E-cadherin residues 828-842 (site-2) (domain or fragment, mouse, UniProt P09803 828-842, looked up)
chain: PYDSLLVFDYEGSGS
notes: For the methyl-TROSY NMR fused to the N-terminus of AnkG R8-24; also called E-cadherin site-2; source: E. coli BL21 (DE3), purified (Ni-NTA, SEC); not shown: Trx, N-terminal, kept; His6, N-terminal, kept

- Kd [2]: ~1.8 µM
B6: E-cadherin residues 854-869 (site-3) (domain or fragment, mouse, UniProt P09803 854-869, looked up)
chain: ESDQDQDYDYLNEWGN
notes: E-cadherin, mouse, residues 854-869; also called E-cadherin site-3; source: E. coli BL21 (DE3), purified (Ni-NTA, SEC); not shown: Trx, N-terminal, kept; His6, N-terminal, kept
